Measured values: the supplement of paper PMC11246515
± gives the standard deviation of the averaged measurements.

Experiment: total protein half-life in vivo (active degradation + dilution); higher = more stable protein
[1] = E. coli NCM3722 delta-clpP delta-lon delta-hslV, growth: N-lim chemostat, doubling time 6 h
[2] = E. coli NCM3722 delta-clpP, growth: N-lim chemostat, doubling time 6 h
[3] = E. coli NCM3722 delta-hslV, growth: N-lim chemostat, doubling time 6 h
[4] = E. coli NCM3722 delta-lon, growth: N-lim chemostat, doubling time 6 h
[5] = E. coli NCM3722 delta-smpB, growth: N-lim chemostat, doubling time 6 h
[6] = wild type E. coli NCM3722, growth: C-lim chemostat, doubling time 3 h
[7] = wild type E. coli NCM3722, growth: C-lim chemostat, doubling time 6 h
[8] = wild type E. coli NCM3722, growth: C-lim chemostat, doubling time 12 h
[9] = wild type E. coli NCM3722, growth: N-lim chemostat, doubling time 6 h
[10] = wild type E. coli NCM3722, growth: N-lim chemostat, doubling time 12 h
[11] = wild type E. coli NCM3722, growth: P-lim chemostat, doubling time 6 h
[12] = wild type E. coli NCM3722, growth: P-lim chemostat, doubling time 12 h

MTIKNKMLLGALLLVTSAAWAAPATAGSTNTSGISKYELSSFIADFKHFKPGDTVPEMYRTDEYNIKQWQLRNLPAPDAGTHWTYMGGAYVLISDTDGKIIKAYDGEIFYHR
total protein half-life in vivo [1]: 5.04 ± 0.4 h
total protein half-life in vivo [2]: 5.973 ± 0.043 h
total protein half-life in vivo [3]: 6.26 ± 0.2 h
total protein half-life in vivo [4]: 5.84 ± 0.39 h
total protein half-life in vivo [5]: 6.59 ± 0.59 h
total protein half-life in vivo [6]: 3.09 ± 0.24 h
total protein half-life in vivo [7]: 5.37 ± 0.16 h
total protein half-life in vivo [8]: 8.3 ± 1.4 h
total protein half-life in vivo [9]: 6.03 ± 0.036 h
total protein half-life in vivo [10]: 11.5 ± 0.32 h
total protein half-life in vivo [11]: 5.446 ± 0.049 h
total protein half-life in vivo [12]: 13.4 ± 2.4 h

MKLIPRSSDISPGIDGICPGPFPPNGFTVLTDAAYGNGDCFGLYWPIGQEHKLPIVCETYHDEWRIVPAFSSIKKFEEWLEVNDDDPHENGISIEDQDFAANLFRVARKCLSTGRLDDALPLLQRATEQLPEVSEYWLALAIQYRRCKKTEAAAQAALNAYLGNWAFGVPDNKVIHLLSQAADVPNFQDDPVIQCIKEQGLDLSFGGTKENNNYPLMQMCVDTYFAQRKPLQALTLLHNYAWIMSSETTAFQERYDFNIDEWRAKFRQLCLEYFGDSRTQFT
total protein half-life in vivo [1]: 3.49 h
total protein half-life in vivo [3]: 3.01 h
total protein half-life in vivo [5]: 3.03 ± 0.077 h
total protein half-life in vivo [6]: 2.62 ± 0.22 h
total protein half-life in vivo [7]: 4.63 ± 0.52 h
total protein half-life in vivo [8]: 8.76 h
total protein half-life in vivo [9]: 3.47 ± 0.64 h
total protein half-life in vivo [10]: 5.75 ± 0.36 h
total protein half-life in vivo [12]: 9.99 h

MLELNFSQTLGNHCLTINETLPANGITAIFGVSGAGKTSLINAISGLTRPQKGRIVLNGRVLNDAEKGICLTPEKRRVGYVFQDARLFPHYKVRGNLRYGMSKSMVDQFDKLVALLGIEPLLDRLPGSLSGGEKQRVAIGRALLTAPELLLLDEPLASLDIPRKRELLPYLQRLTREINIPMLYVSHSLDEILHLADRVMVLENGQVKAFGALEEVWGSSVMNPWLPKEQQSSILKVTVLEHHPHYAMTALALGDQHLWVNKLDEPLQAALRIRIQASDVSLVLQPPQQTSIRNVLRAKVVNSYDDNGQVEVELEVGGKTLWARISPWARDELAIKPGLWLYAQIKSVSITA
total protein half-life in vivo [1]: 5.74 ± 0.84 h
total protein half-life in vivo [2]: 6.32 ± 1.6 h
total protein half-life in vivo [3]: 6.25 ± 0.98 h
total protein half-life in vivo [4]: 5.26 ± 0.55 h
total protein half-life in vivo [5]: 5.04 ± 0.092 h
total protein half-life in vivo [6]: 2.76 ± 0.18 h
total protein half-life in vivo [7]: 5.77 ± 0.64 h
total protein half-life in vivo [8]: 11 ± 1.2 h
total protein half-life in vivo [9]: 5.676 ± 0.014 h
total protein half-life in vivo [10]: 10.2 ± 1.3 h
total protein half-life in vivo [11]: 6.12 ± 0.077 h

MIALIQRVTRASVTVEGEVTGEIGAGLLVLLGVEKDDDEQKANRLCERVLGYRIFSDAEGKMNLNVQQAGGSVLVVSQFTLAADTERGMRPSFSKGASPDRAEALYDYFVERCRQQEMNTQTGRFAADMQVSLVNDGPVTFWLQV [P0A6M4]
total protein half-life in vivo [1]: 4.67 ± 0.29 h
total protein half-life in vivo [2]: 3.81 ± 0.19 h
total protein half-life in vivo [3]: 3.859 ± 0.026 h
total protein half-life in vivo [4]: 4.26 ± 0.52 h
total protein half-life in vivo [5]: 4.06 ± 0.17 h
total protein half-life in vivo [7]: 5.48 ± 0.15 h
total protein half-life in vivo [8]: 10 ± 0.87 h
total protein half-life in vivo [9]: 3.84 ± 0.29 h
total protein half-life in vivo [10]: 6.66 ± 0.43 h
total protein half-life in vivo [11]: 5.52 ± 0.24 h
total protein half-life in vivo [12]: 11 ± 0.22 h

MIAIADILQAGEKLTAVAPFLAGIQNEEQYTQALELVDHLLLNDPENPLLDLVCAKITAWEESAPEFAEFNAMAQAMPGGIAVIRTLMDQYGLTLSDLPEIGSKSMVSRVLSGKRKLTLEHAKKLATRFGISPALFID
total protein half-life in vivo [1]: 4.71 h
total protein half-life in vivo [2]: 1.51 h
total protein half-life in vivo [12]: 1.85 h

MTTMLEVAKRAGVSKATVSRVLSGNGYVSQETKDRVFQAVEESGYRPNLLARNLSAKSTQTLGLVVTNTLYHGIYFSELLFHAARMAEEKGRQLLLADGKHSAEEERQAIQYLLDLRCDAIMIYPRFLSVDEIDDIIDAHSQPIMVLNRRLRKNSSHSVWCDHKQTSFNAVAELINAGHQEIAFLTGSMDSPTSIERLAGYKDALAQHGIALNEKLIANGKWTPASGAEGVEMLLERGAKFSALVASNDDMAIGAMKALHERGVAVPEQVSVIGFDDIAIAPYTVPALSSVKIPVTEMIQEIIGRLIFMLDGGDFSPPKTFSGKLIRRDSLIAPSR
total protein half-life in vivo [2]: 4.95 h
total protein half-life in vivo [3]: 3.46 ± 0.2 h
total protein half-life in vivo [4]: 4.26 ± 0.14 h
total protein half-life in vivo [5]: 3.44 ± 0.13 h
total protein half-life in vivo [6]: 3 ± 0.72 h
total protein half-life in vivo [7]: 4.91 ± 0.77 h
total protein half-life in vivo [8]: 8.06 ± 0.59 h
total protein half-life in vivo [9]: 3.59 h
total protein half-life in vivo [10]: 5.73 ± 0.34 h
total protein half-life in vivo [11]: 2.66 ± 0.17 h
total protein half-life in vivo [12]: 7.06 ± 0.59 h

MMANIWWSLPLTLIVFFAARKLAARYKFPLLNPLLVAMVVIIPFLMLTGISYDSYFKGSEVLNDLLQPAVVALAYPLYEQLHQIRARWKSIITICFIGSVVAMVTGTSVALLMGASPEIAASILPKSVTTPIAMAVGGSIGGIPAISAVCVIFVGILGAVFGHTLLNAMRIRTKAARGLAMGTASHALGTARCAELDYQEGAFSSLALVLCGIITSLIAPFLFPIILAVMG [P0AD19]
total protein half-life in vivo [9]: 5.99 h

MKTIHDIRRSNARKLRDGVGGNSSFATMIDREPTQTSRFMGDGATKNIGDSMARHIEKCFDLPVGWLDQEHQTTNITKKPDVSITNKQITLVPVISWVQAGAWKEVGYSEVDLSTAETYPCPVPCGEMTYILRVIGDSMIDEYRPGDMIFVDPEVPACHGDDVIALMHDTGETTFKRLIEDGTQRYLKALNPNWPEPYIKINGNCSIIGTVIFSGKPRRYKIKA
total protein half-life in vivo [1]: 5.24 ± 0.42 h
total protein half-life in vivo [2]: 5.02 ± 0.3 h
total protein half-life in vivo [3]: 4.84 ± 0.77 h
total protein half-life in vivo [4]: 4.886 ± 0.017 h
total protein half-life in vivo [5]: 5.12 ± 0.24 h
total protein half-life in vivo [7]: 6.8 ± 0.23 h
total protein half-life in vivo [8]: 9.86 ± 0.61 h
total protein half-life in vivo [9]: 5.26 ± 0.76 h
total protein half-life in vivo [10]: 7.94 ± 0.96 h
total protein half-life in vivo [11]: 4.81 ± 0.62 h
total protein half-life in vivo [12]: 12.7 ± 2 h

MSKKLIALCACPMGLAHTFMAAQALEEAAVEAGYEVKIETQGADGIQNRLTAQDIAEATIIIHSVAVTPEDNERFESRDVYEITLQDAIKNAAGIIKEIEEMIASEQQ
total protein half-life in vivo [1]: 4.54 ± 0.89 h
total protein half-life in vivo [6]: 2.27 ± 0.1 h
total protein half-life in vivo [7]: 4.02 ± 0.38 h
total protein half-life in vivo [8]: 5.83 ± 0.31 h
